Test results as given in patent US20240376208A1 (AFFIMED, published 2024).

B1: scFv-IgAb_167 (bispecific antibody)
heavy: QVQLQESGPGLVKPSETLSLTCTVSGGSVSSGSYYWSWIRQPPGKGLEWIGYIYYSGSTNYNPSLKSRVTISVDTSKNQFSLKLSSVTAADTAVYYCARNPISIPAFDIWGQGTMVTVSSASTKGPSVFPLAPSSKSTSGGTAALGCLVKDYFPEPVTVSWNSGALTSGVHTFPAVLQSSGLYSLSSVVTVPSSSLGTQTYICNVNHKPSNTKVDKKVEPKSCDKTHTCPPCPAPEFEGGPSVFLFPPKPKDTLMISRTPEVTCVVVAVSHEDPEVKFNWYVDGVEVHNAKTKPREEQYNSTYRVVSVLTVLHQDWLNGKEYKCKVSNKALPAPIEKTISKAKGQPREPQVYTLPPSREEMTKNQVSLTCLVKGFYPSDIAVEWESNGQPENNYKTTPPVLDSDGSFFLYSKLTVDKSRWQQGNVFSCSVMHEALHNHYTQKSLSLSPGGGGGSGGGGSGGGGSGGGGSGGGGSGGGGSSYVLTQPSSVSVAPGQTARITCGGNNIGSKSVHWYQQKPGQAPVLVIYQDKKRPSGIPERFSGSNSGNTATLTISGTQAMDEADYYCQVWDDYIVLFGGGTKLTVLGGSGGSGGSGGSGGSGGSGGSQVQLVQSGAEVKKPGESLKVSCKASGYTFTNYYMQWVRQAPGQGLEWMGIINPSGGVTSYAQKFQGRVTMTRDTSTSTVYMELSSLRSEDTAVYYCARGSAYYYDFADYWGQGTLVTVSS
light: QPVLTQPPSVSVAPGKTARITCGGNNIGSKSVHWYQQKPGQAPVLVIYYDSDRPSGIPERFSGSNSGNTATLTISRVEAGDEADYYCQVWDTSSDHVLFGGGTKLTVLGQPKAAPSVTLFPPSSEELQANKATLVCLISDFYPGAVTVAWKADSSPVKAGVETTTPSKQSNNKYAASSYLSLTPEQWKSHRSYSCQVTHEGSTVEKTVAPTECS
B2: Bi-scDb-IgAb_06 (bispecific antibody)
heavy: QVQLQESGPGLVKPSETLSLTCTVSGGSVSSGSYYWSWIRQPPGKGLEWIGYIYYSGSTNYNPSLKSRVTISVDTSKNQFSLKLSSVTAADTAVYYCARNPISIPAFDIWGQGTMVTVSSASTKGPSVFPLAPSSKSTSGGTAALGCLVKDYFPEPVTVSWNSGALTSGVHTFPAVLQSSGLYSLSSVVTVPSSSLGTQTYICNVNHKPSNTKVDKKVEPKSCDKTHTCPPCPAPEFEGGPSVFLFPPKPKDTLMISRTPEVTCVVVAVSHEDPEVKFNWYVDGVEVHNAKTKPREEQYNSTYRVVSVLTVLHQDWLNGKEYKCKVSNKALPAPIEKTISKAKGQPREPQVYTLPPSREEMTKNQVSLTCLVKGFYPSDIAVEWESNGQPENNYKTTPPVLDSDGSFFLYSKLTVDKSRWQQGNVFSCSVMHEALHNHYTQKSLSLSPGGGGGSGGGGSSYVLTQPSSVSVAPGQTATISCGGHNIGSKNVHWYQQRPGQSPVLVIYQDNKRPSGIPERFSGSNSGNTATLTISGTQAMDEADYYCQVWDNYSVLFGGGTKLTVLGGSGGSQVQLVQSGAEVKKPGESLKVSCKASGYTFTSYYMHWVRQAPGQGLEWMGAIEPMYGSTSYAQKFQGRVTMTRDTSTSTVYMELSSLRSEDTAVYYCARGSAYYYDFADYWGQGTLVTVSSGGSGGSGGSGGSGGSGGSSYVLTQPSSVSVAPGQTATISCGGHNIGSKNVHWYQQRPGQSPVLVIYQDNKRPSGIPERFSGSNSGNTATLTISGTQAMDEADYYCQVWDNYSVLFGGGTKLTVLGGSGGSQVQLVQSGAEVKKPGESLKVSCKASGYTFTSYYMHWVRQAPGQGLEWMGAIEPMYGSTSYAQKFQGRVTMTRDTSTSTVYMELSSLRSEDTAVYYCARGSAYYYDFADYWGQGTLVTVSS
light: QPVLTQPPSVSVAPGKTARITCGGNNIGSKSVHWYQQKPGQAPVLVIYYDSDRPSGIPERFSGSNSGNTATLTISRVEAGDEADYYCQVWDTSSDHVLFGGGTKLTVLGQPKAAPSVTLFPPSSEELQANKATLVCLISDFYPGAVTVAWKADSSPVKAGVETTTPSKQSNNKYAASSYLSLTPEQWKSHRSYSCQVTHEGSTVEKTVAPTECS
B3: aBi-scDb-Fc_01 (bispecific antibody)
chain 1: SYVLTQPSSVSVAPGQTATISCGGHNIGSKNVHWYQQRPGQSPVLVIYQDNKRPSGIPERFSGSNSGNTATLTISGTQAMDEADYYCQVWDNYSVLFGGGTKLTVLGGSGGSQVQLVQSGAEVKKPGESLKVSCKASGYTFTSYYMHWVRQAPGQGLEWMGAIEPMYGSTSYAQKFQGRVTMTRDTSTSTVYMELSSLRSEDTAVYYCARGSAYYYDFADYWGQGTLVTVSSGGSGGSGGSGGSGGSGGSSYVLTQPSSVSVAPGQTATISCGGHNIGSKNVHWYQQRPGQSPVLVIYQDNKRPSGIPERFSGSNSGNTATLTISGTQAMDEADYYCQVWDNYSVLFGGGTKLTVLGGSGGSQVQLVQSGAEVKKPGESLKVSCKASGYTFTSYYMHWVRQAPGQGLEWMGAIEPMYGSTSYAQKFQGRVTMTRDTSTSTVYMELSSLRSEDTAVYYCARGSAYYYDFADYWGQGTLVTVSSGGGGSDKTHTCPPCPAPEFEGGPSVFLFPPKPKDTLMISRTPEVTCVVVAVSHEDPEVKFNWYVDGVEVHNAKTKPREEQYNSTYRVVSVLTVLHQDWLNGKEYKCKVSNKALPAPIEKTISKAKGQPREPQVYTLPPSREEMTKNQVSLTCLVKGFYPSDIAVEWESNGQPENNYKTTPPVLDSDGSFFLTSKLTVDKSRWQQGNVFSCSVMHEALHNHYTQKSLSLSPGAAAGSHHHHHH
chain 2: SYVLTQPSSVSVAPGQTATISCGGHNIGSKNVHWYQQRPGQSPVLVIYQDNKRPSGIPERFSGSNSGNTATLTISGTQAMDEADYYCQVWDNYSVLFGGGTKLTVLGGSGGSQVQLVQSGAEVKKPGESLKVSCKASGYTFTSYYMHWVRQAPGQGLEWMGAIEPMYGSTSYAQKFQGRVTMTRDTSTSTVYMELSSLRSEDTAVYYCARGSAYYYDFADYWGQGTLVTVSSGGSGGSGGSGGSGGSGGSSYVLTQPSSVSVAPGQTATISCGGHNIGSKNVHWYQQRPGQSPVLVIYQDNKRPSGIPERFSGSNSGNTATLTISGTQAMDEADYYCQVWDNYSVLFGGGTKLTVLGGSGGSQVQLVQSGAEVKKPGESLKVSCKASGYTFTSYYMHWVRQAPGQGLEWMGAIEPMYGSTSYAQKFQGRVTMTRDTSTSTVYMELSSLRSEDTAVYYCARGSAYYYDFADYWGQGTLVTVSSGGGGSDKTHTCPPCPAPEFEGGPSVFLFPPKPKDTLMISRTPEVTCVVVAVSHEDPEVKFNWYVDGVEVHNAKTKPREEQYNSTYRVVSVLTVLHQDWLNGKEYKCKVSNKALPAPIEKTISKAKGQPREPQVYTLPPSREEMTKNQVSLYCLVKGFYPSDIAVEWESNGQPENNYKTTPPVLDSDGSFFLYSKLTVDKSRWQQGNVFSCSVMHEALHNHYTQKSLSLSPGGGGGSGGGGSEVQLLESGGGLVQPGGSLRLSCAASGFTFSNYDMAWVRQAPGKGLEWVSSISTRGDITSYRDSVKGRFTISRDNSKNTLYLQMNSLRAEDTAVYYCARQDYYTDYMGFAYWGQGTLVTVSSGGGGSGGGGSGGGGSAIQMTQSPSSLSASVGDRVTITCRASEDIYNGLAWYQQKPGKAPKLLIYGASSLQDGVPSRFSGSGSGTEFTLTISSLQPEDEATYYCAGPHKYPLTFGGGTKVEIK
B4: aBi-scDb-Fc_03 (bispecific antibody)
chain 1: DKTHTCPPCPAPEFEGGPSVFLFPPKPKDTLMISRTPEVTCVVVAVSHEDPEVKFNWYVDGVEVHNAKTKPREEQYNSTYRVVSVLTVLHQDWLNGKEYKCKVSNKALPAPIEKTISKAKGQPREPQVYTLPPSREEMTKNQVSLTCLVKGFYPSDIAVEWESNGQPENNYKTTPPVLDSDGSFFLTSKLTVDKSRWQQGNVFSCSVMHEALHNHYTQKSLSLSPGGGGGSGGGGSSYVLTQPSSVSVAPGQTATISCGGHNIGSKNVHWYQQRPGQSPVLVIYQDNKRPSGIPERFSGSNSGNTATLTISGTQAMDEADYYCQVWDNYSVLFGGGTKLTVLGGSGGSQVQLVQSGAEVKKPGESLKVSCKASGYTFTSYYMHWVRQAPGQGLEWMGAIEPMYGSTSYAQKFQGRVTMTRDTSTSTVYMELSSLRSEDTAVYYCARGSAYYYDFADYWGQGTLVTVSSGGSGGSGGSGGSGGSGGSSYVLTQPSSVSVAPGQTATISCGGHNIGSKNVHWYQQRPGQSPVLVIYQDNKRPSGIPERFSGSNSGNTATLTISGTQAMDEADYYCQVWDNYSVLFGGGTKLTVLGGSGGSQVQLVQSGAEVKKPGESLKVSCKASGYTFTSYYMHWVRQAPGQGLEWMGAIEPMYGSTSYAQKFQGRVTMTRDTSTSTVYMELSSLRSEDTAVYYCARGSAYYYDFADYWGQGTLVTVSSAAAGSHHHHHH
chain 2: SYVLTQPSSVSVAPGQTATISCGGHNIGSKNVHWYQQRPGQSPVLVIYQDNKRPSGIPERFSGSNSGNTATLTISGTQAMDEADYYCQVWDNYSVLFGGGTKLTVLGGSGGSQVQLVQSGAEVKKPGESLKVSCKASGYTFTSYYMHWVRQAPGQGLEWMGAIEPMYGSTSYAQKFQGRVTMTRDTSTSTVYMELSSLRSEDTAVYYCARGSAYYYDFADYWGQGTLVTVSSGGSGGSGGSGGSGGSGGSSYVLTQPSSVSVAPGQTATISCGGHNIGSKNVHWYQQRPGQSPVLVIYQDNKRPSGIPERFSGSNSGNTATLTISGTQAMDEADYYCQVWDNYSVLFGGGTKLTVLGGSGGSQVQLVQSGAEVKKPGESLKVSCKASGYTFTSYYMHWVRQAPGQGLEWMGAIEPMYGSTSYAQKFQGRVTMTRDTSTSTVYMELSSLRSEDTAVYYCARGSAYYYDFADYWGQGTLVTVSSGGGGSDKTHTCPPCPAPEFEGGPSVFLFPPKPKDTLMISRTPEVTCVVVAVSHEDPEVKFNWYVDGVEVHNAKTKPREEQYNSTYRVVSVLTVLHQDWLNGKEYKCKVSNKALPAPIEKTISKAKGQPREPQVYTLPPSREEMTKNQVSLYCLVKGFYPSDIAVEWESNGQPENNYKTTPPVLDSDGSFFLYSKLTVDKSRWQQGNVFSCSVMHEALHNHYTQKSLSLSPGGGGGSGGGGSEVQLLESGGGLVQPGGSLRLSCAASGFTFSNYDMAWVRQAPGKGLEWVSSISTRGDITSYRDSVKGRFTISRDNSKNTLYLQMNSLRAEDTAVYYCARQDYYTDYMGFAYWGQGTLVTVSSGGGGSGGGGSGGGGSAIQMTQSPSSLSASVGDRVTITCRASEDIYNGLAWYQQKPGKAPKLLIYGASSLQDGVPSRFSGSGSGTEFTLTISSLQPEDEATYYCAGPHKYPLTFGGGTKVEIK

Legend:
Assay in all cases: cell-based or functional assay
[1] = biological target: T1, EGFR on tumor target cells (MCF-7, Daudi, DK-MG, HCT-116) (UniProt P00533 25-1210, limits assumed)
[2] = biological target: T1, EGFR on tumor target cells (MCF-7, …); remark: listed apart in the source
[3] = biological target: CD16A on primary human NK cells (human, UniProt P08637 17-254)
Chain of CD16A on primary human NK cells (P08637 17-254 limits assumed): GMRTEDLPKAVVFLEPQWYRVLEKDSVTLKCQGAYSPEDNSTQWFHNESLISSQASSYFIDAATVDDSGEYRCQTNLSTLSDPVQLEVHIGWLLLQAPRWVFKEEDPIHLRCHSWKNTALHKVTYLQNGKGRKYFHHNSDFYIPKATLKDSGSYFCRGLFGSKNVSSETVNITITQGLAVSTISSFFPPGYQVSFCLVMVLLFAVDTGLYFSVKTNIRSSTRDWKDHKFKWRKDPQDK

[4] = biological target: T2, BCMA on MM.1S target cells (UniProt Q02223 1-184, limits assumed)
T2 sequence (looked up): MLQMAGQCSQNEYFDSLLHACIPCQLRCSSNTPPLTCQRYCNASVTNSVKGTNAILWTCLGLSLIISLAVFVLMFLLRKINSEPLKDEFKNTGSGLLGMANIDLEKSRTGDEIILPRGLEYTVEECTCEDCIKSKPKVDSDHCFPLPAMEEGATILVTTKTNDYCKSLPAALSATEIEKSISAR

Binder | EC50 [pM], 4 h calcein-release cytotoxicity on MCF-7 target cells, NK cells E:T 5:1 [1] | Emax [%], 4 h calcein-release cytotoxicity on MCF-7 target cells, NK cells E:T 5:1 [1] | EC50 [pM], 4 h calcein-release cytotoxicity on Daudi target cells, NK cells E:T 5:1 [2] | Emax [%], 4 h calcein-release cytotoxicity on Daudi target cells, NK cells E:T 5:1 [2] | Emax [%], 4 h calcein-release NK cell fratricide assay, E:T 1:1 [3] | EC50 [pM], 4 h calcein-release cytotoxicity on BCMA+ MM.1S target cells, NK cells E:T 5:1 [4] | Emax [%], 4 h calcein-release cytotoxicity on BCMA+ MM.1S target cells, NK cells E:T 5:1 [4]
B1 | 8.8 pM | 17.9% | 46.8 pM | 8% | 2.8% | – | –
B2 | 2.1 pM | 25% | 18.6 pM | 18.2% | 15% | – | –
B3 | – | – | – | – | – | 1 pM | 46.4%
B4 | – | – | – | – | – | 2.4 pM | 51%
